In the supplement of paper PMC9876800:

Tested on: peptide library, one residue held at a place counted from the S/T acceptor
Assay: relative phosphorylation of the sub-library (ratio to the mean residue at this position); human; higher = residue favoured
How it was run: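 Human or orthologue kinase constructs, purified and recombinant, were incubated under kinase-specific conditions in 384-well plates with biotinylated degenerate peptide sub-libraries. Each sub-library fixed one residue at one position around a central Ser/Thr. Incubations lasted 90 min with peptides at 50 μM and 50 μM ATP spiked with γ-32P-ATP, after which spots on streptavidin membranes were phosphorimaged and quantified by densitometry. Relative sub-library phosphorylation is a ratio to the mean residue at that position.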

CSNK1G3, construct: Full length, sequence (Q9Y6M4 whole entry, looked up): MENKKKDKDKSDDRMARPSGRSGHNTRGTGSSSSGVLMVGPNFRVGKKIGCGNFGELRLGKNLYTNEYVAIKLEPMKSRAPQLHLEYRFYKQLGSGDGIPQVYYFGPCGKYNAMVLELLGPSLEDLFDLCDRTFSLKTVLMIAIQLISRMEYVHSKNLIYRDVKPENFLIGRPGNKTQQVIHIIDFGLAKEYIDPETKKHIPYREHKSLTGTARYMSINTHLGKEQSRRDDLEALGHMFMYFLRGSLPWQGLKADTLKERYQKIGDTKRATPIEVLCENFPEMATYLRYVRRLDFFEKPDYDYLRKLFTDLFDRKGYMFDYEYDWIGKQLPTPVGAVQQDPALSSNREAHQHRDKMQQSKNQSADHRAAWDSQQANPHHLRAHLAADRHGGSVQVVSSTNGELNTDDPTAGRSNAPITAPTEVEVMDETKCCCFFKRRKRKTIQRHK
MAP3K10, construct: aa1-449, sequence (Q02779 1-449, looked up): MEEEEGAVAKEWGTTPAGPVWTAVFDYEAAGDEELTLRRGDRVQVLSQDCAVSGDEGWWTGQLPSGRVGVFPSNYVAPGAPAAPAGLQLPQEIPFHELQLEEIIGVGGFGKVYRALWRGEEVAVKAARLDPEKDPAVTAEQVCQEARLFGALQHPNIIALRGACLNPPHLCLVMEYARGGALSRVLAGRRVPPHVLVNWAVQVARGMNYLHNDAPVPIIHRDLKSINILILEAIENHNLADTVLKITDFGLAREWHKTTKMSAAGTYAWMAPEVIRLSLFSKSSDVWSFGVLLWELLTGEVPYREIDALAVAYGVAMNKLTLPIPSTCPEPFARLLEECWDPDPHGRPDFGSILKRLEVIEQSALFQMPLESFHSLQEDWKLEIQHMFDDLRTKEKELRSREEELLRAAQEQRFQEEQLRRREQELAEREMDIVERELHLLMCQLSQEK
NEK1, construct: aa1-505, sequence (Q96PY6 1-505, looked up): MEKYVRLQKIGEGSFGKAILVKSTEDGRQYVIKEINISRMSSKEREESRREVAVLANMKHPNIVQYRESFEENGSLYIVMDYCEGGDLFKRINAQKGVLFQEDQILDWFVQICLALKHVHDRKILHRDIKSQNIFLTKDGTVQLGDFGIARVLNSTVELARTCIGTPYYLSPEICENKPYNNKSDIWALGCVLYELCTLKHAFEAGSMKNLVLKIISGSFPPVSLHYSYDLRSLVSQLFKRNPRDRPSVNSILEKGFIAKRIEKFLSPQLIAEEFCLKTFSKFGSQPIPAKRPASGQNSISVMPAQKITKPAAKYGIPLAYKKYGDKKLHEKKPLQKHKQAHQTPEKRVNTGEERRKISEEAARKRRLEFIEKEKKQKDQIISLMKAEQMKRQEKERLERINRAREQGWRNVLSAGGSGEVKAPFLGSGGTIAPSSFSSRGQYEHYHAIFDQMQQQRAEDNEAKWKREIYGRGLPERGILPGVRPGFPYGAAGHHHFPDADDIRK
TNIK, construct: aa1-314, sequence (Q9UKE5 1-314, looked up): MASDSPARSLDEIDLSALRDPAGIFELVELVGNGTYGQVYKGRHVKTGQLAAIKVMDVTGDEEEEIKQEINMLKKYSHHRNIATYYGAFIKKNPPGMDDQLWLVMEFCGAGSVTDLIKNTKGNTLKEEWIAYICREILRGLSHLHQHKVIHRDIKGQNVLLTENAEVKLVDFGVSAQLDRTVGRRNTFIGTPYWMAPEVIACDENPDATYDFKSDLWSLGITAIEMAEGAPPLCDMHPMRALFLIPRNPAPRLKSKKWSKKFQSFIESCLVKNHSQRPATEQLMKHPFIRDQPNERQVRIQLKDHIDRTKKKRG

CSNK1G3, construct: Full length (from UniProt Q9Y6M4)
relative phosphorylation
Details	at +1	at +2	at +3	at +4	at -1	at -2	at -3	at -4	at -5
A fixed	0.678	0.743	0.752	0.708	0.916	1.39	0.508	0.923	1.01
D fixed	0.543	0.941	2.63	1.12	0.701	1.08	5.05	1.58	1.8
E fixed	0.611	0.607	1.46	0.928	0.788	1.27	3.58	1.78	1.62
F fixed	1.07	1.17	1.22	1.43	0.905	0.576	0.522	1.07	0.859
G fixed	0.459	0.67	0.931	1.07	0.635	0.903	0.475	0.818	0.86
H fixed	0.841	1.44	0.901	0.991	0.949	0.716	0.548	0.898	0.988
I fixed	1.81	1.02	0.58	0.696	1.39	0.963	0.467	0.714	0.82
K fixed	0.778	0.952	0.672	0.822	1	0.832	0.652	0.763	0.896
L fixed	2.24	1.1	0.772	0.808	1.23	1.05	0.484	0.796	0.91
M fixed	1.58	0.945	0.748	0.989	1.32	0.882	0.504	0.872	0.96
N fixed	0.721	1.06	1.05	0.947	0.781	1.57	0.645	0.801	1.04
P fixed	0.443	0.482	0.683	0.97	0.579	0.471	0.418	0.897	0.658
Q fixed	0.843	0.864	0.869	0.879	1.1	1.26	0.528	0.788	0.79
R fixed	1.03	1.25	0.877	1.02	1.28	1.54	1.02	0.845	0.992
V fixed	1.5	0.936	0.794	0.814	1.23	1.17	0.458	0.669	0.876
W fixed	1.01	1.23	1.11	1.48	1.22	0.715	0.581	1.69	1.05
Y fixed	0.855	1.59	0.941	1.33	0.974	0.613	0.56	1.1	0.877
pThr fixed	0.618	0.558	1.52	2.55	0.636	4.34	144	10.2	4.37
pTyr fixed	1.13	5.14	9.54	2.97	0.797	1.85	12.1	5.93	2.97

NEK1, construct: aa1-505 (from UniProt Q96PY6)
relative phosphorylation
Details	at +1	at +2	at +3	at +4	at -1	at -2	at -3	at -4	at -5
A fixed	0.882	1.08	0.91	1.02	1.2	1	0.996	1.04	0.968
D fixed	0.22	0.456	0.504	0.774	0.566	0.69	0.378	0.781	0.764
E fixed	0.268	0.389	0.41	0.732	0.713	0.706	0.373	0.785	0.678
F fixed	1.36	0.744	1.2	0.804	0.891	0.98	1.61	1.06	1.15
G fixed	1.11	0.85	1.05	1.18	1.3	1.2	1.41	1.3	1.06
H fixed	1.02	1.22	1.03	1.11	1.21	1.08	1.14	0.962	1.05
I fixed	1.27	0.769	0.991	0.792	0.424	0.849	0.571	0.844	0.858
K fixed	1.16	2.06	1.03	1.38	1.46	0.75	1.03	1.33	1.24
L fixed	1.32	0.939	1.17	1	1.08	1.58	1.82	1.12	1.1
M fixed	1.67	0.975	0.907	0.93	1.41	1.24	1.62	0.996	1.13
N fixed	0.61	1.02	0.935	0.912	1.05	1.29	0.629	0.87	0.959
P fixed	0.142	0.95	1.12	1.15	0.558	0.677	1.25	1.14	1.4
Q fixed	1.05	0.706	0.724	1.01	0.889	1.04	0.668	0.799	0.889
R fixed	1.51	2.21	1.63	1.38	1.57	1.27	0.919	1.08	1.15
V fixed	0.958	0.914	0.851	0.78	0.522	0.713	0.444	0.783	0.82
W fixed	1.27	0.727	1.37	1.29	0.895	1.04	1.08	1.23	0.947
Y fixed	1.18	0.996	1.18	0.738	1.26	0.89	1.06	0.887	0.835
pThr fixed	0.424	0.571	0.507	0.579	0.323	0.516	0.508	0.746	0.905
pTyr fixed	0.397	0.434	0.642	0.547	0.707	0.523	0.648	0.851	1.03

TNIK, construct: aa1-314 (from UniProt Q9UKE5)
relative phosphorylation
Details	at +1	at +2	at +3	at +4	at -1	at -2	at -3	at -4	at -5
A fixed	0.761	1.16	0.938	1.13	1.07	1.21	1.01	1.08	1.36
D fixed	0.223	0.678	0.496	0.73	0.855	0.883	0.799	0.968	0.923
E fixed	0.249	0.591	0.389	0.656	0.682	0.577	0.76	1.1	0.885
F fixed	0.89	0.449	0.465	0.632	0.699	1.24	0.895	0.959	0.909
G fixed	0.746	1.01	0.904	1.17	1.73	1.3	1.2	1.18	1.31
H fixed	0.916	1.28	0.94	1.06	1.52	1.19	1.47	1.13	1.02
I fixed	1.49	0.459	0.381	0.593	0.326	0.689	0.701	0.73	0.724
K fixed	1.08	2.49	3.02	2.18	1.36	0.919	1.44	1.17	1.2
L fixed	2.4	0.685	0.777	0.636	0.803	0.595	0.67	0.751	0.619
M fixed	1.98	0.806	0.52	0.715	1.06	0.79	0.814	0.866	0.793
N fixed	0.843	0.992	0.871	1.02	1.33	1.19	1.15	0.792	1.02
P fixed	0.338	1.05	1.14	1.23	0.65	0.736	1.08	1.18	1.41
Q fixed	0.782	1.04	0.886	1.04	0.859	0.987	0.896	0.964	0.912
R fixed	0.995	2.4	3.23	2.2	1.7	1.19	1.33	1.17	1.22
V fixed	0.898	0.531	0.503	0.65	0.438	0.785	0.594	0.816	0.891
W fixed	1.32	0.593	0.789	0.738	0.685	1.17	1.04	0.954	0.771
Y fixed	1.08	0.783	0.745	0.619	1.23	1.55	1.16	1.19	1.02
pThr fixed	0.541	0.566	0.532	0.519	0.449	0.797	0.884	0.945	1
pTyr fixed	0.42	0.505	0.638	0.581	1.02	0.969	1.22	1.15	1.03

MAP3K10, construct: aa1-449 (from UniProt Q02779)
relative phosphorylation
Details	at +1	at +2	at +3	at +4	at -1	at -2	at -3	at -4	at -5
A fixed	0.988	0.921	1.06	1.24	0.881	0.969	1.12	1.23	1.48
D fixed	0.28	0.398	0.506	0.72	0.775	0.594	0.888	1.11	1.11
E fixed	0.404	0.392	0.439	0.573	0.65	0.584	0.827	0.909	0.764
F fixed	1.53	0.602	1.19	0.779	1.05	1.44	0.935	0.693	0.878
G fixed	0.999	0.749	1.42	1.43	0.603	0.911	1.28	1.43	1.39
H fixed	1.65	2.11	1.34	1.07	1.39	1.2	1.19	1.11	1.17
I fixed	0.774	0.445	0.773	0.705	0.65	0.505	0.484	0.541	0.596
K fixed	1.12	1.84	1.01	1.44	1.22	0.514	0.964	1.08	0.953
L fixed	0.764	0.561	0.897	0.75	0.973	0.789	0.731	0.698	0.712
M fixed	1.33	0.634	0.985	0.746	1.14	1.3	0.821	0.879	0.725
N fixed	0.977	1.07	1.06	1.06	1.23	1.08	1.54	1.17	1.01
P fixed	0.32	0.67	1.06	1.7	0.95	1.87	1.51	1.56	1.28
Q fixed	1.54	1.24	1.06	1.35	1.37	1.12	1.26	1.05	0.951
R fixed	1.35	2.26	0.966	0.912	1.09	0.569	0.762	0.957	1
V fixed	0.942	0.635	0.791	0.777	0.806	0.589	0.665	0.636	0.846
W fixed	1.05	1.09	1.28	0.923	1.07	1.5	0.997	1.09	1.24
Y fixed	0.978	1.39	1.16	0.832	1.15	1.47	1.02	0.843	0.884
pThr fixed	0.578	0.503	0.623	0.634	0.63	0.706	0.849	0.914	0.992
pTyr fixed	0.455	0.311	0.519	0.452	0.862	0.525	0.707	0.616	0.73
